Blank lines part the entries; values can stand above or below the molecule they belong to.
Key:
[1] = tested on: N[C@@H](CS)C(=O)O; assay: purified protein; type: biochemical, Pseudomonas aeruginosa; conditions: PLP PLP-containing active site
[2] = tested on: N[C@@H](CCSC[C@H](N)C(=O)O)C(=O)O; assay: DTNB assay steady-state kinetics (Km); type: biochemical, Pseudomonas aeruginosa; conditions: PLP PLP-containing active site
[3] = biological target: PaCGL F114N variant ("humanized"), N-terminal 6x-His tag (Pseudomonas aeruginosa); assay: SEC; gel filtration on Sephacryl S-200 16/60 HR in 20 mM sodium phosphate pH 8.0, 150 mM NaCl, 0.1 mM DTT; calibration curve; self-association (tetramer)
[4] = biological target: cystathionine γ-lyase from Pseudomonas aeruginosa (PaCGL), wild type, N-terminal 6x-His tag (Pseudomonas aeruginosa); assay: as above
[5] = biological target: PaCGL F114A variant, N-terminal 6x-His tag (Pseudomonas aeruginosa); assay: as above
[6] = biological target: T1, cystathionine γ-lyase (PaCGL) (Pseudomonas aeruginosa, UniProt Q9I6A0); assay: intrinsic fluorescence titration of apo-PaCGL; […] Å crystal structure; type: binding
T1 construct: gene PA0400; 394-residue PaCGL (PAO1_PA0400), 6x-His tagged; homotetramer

[7] = substrate: N[C@@H](CCS)C(=O)O; assay: lead acetate H2S assay kinetics (Km); LC-MS/MS; type: biochemical, Pseudomonas aeruginosa; conditions: PLP PLP-containing active site
[8] = substrate: N[C@@H](CS)C(=O)O; assay: purified protein; type: biochemical, Pseudomonas aeruginosa; conditions: PLP amino acid site […] of the active site (second L-Cys at site […])
[9] = substrate: N[C@@H](CCSC[C@H](N)C(=O)O)C(=O)O; assay: DTNB assay steady-state kinetics (Km); UV-Vis and CD spectra; LC-MS/MS; type: biochemical, Pseudomonas aeruginosa; conditions: PLP PLP-containing active site (chamber-1)

Molecule: cystathionine γ-lyase (PaCGL) (Pseudomonas aeruginosa PAO1; F114A)
- Km [1]: 490 ± 10 µM
- kcat [1]: 0.13 ± 0.01 s⁻¹
- kcat/Km [1]: 270 ± 30 M⁻¹ s⁻¹
- Km [2]: 600 ± 100 µM
- kcat [2]: 3.2 ± 0.2 s⁻¹
- kcat/Km [2]: 5300 ± 1200 M⁻¹ s⁻¹

Molecule: PaCGL F114N variant ("humanized"), N-terminal 6x-His tag (enzyme)
- stoichiometry N [3]: 4

Molecule: cystathionine γ-lyase (PaCGL) (Pseudomonas aeruginosa PAO1; F114N)
- Km [1]: 1600 ± 300 µM
- kcat [1]: 0.38 ± 0.06 s⁻¹
- kcat/Km [1]: 240 ± 80 M⁻¹ s⁻¹
- Km [2]: 500 ± 100 µM
- kcat [2]: 3.2 ± 0.1 s⁻¹
- kcat/Km [2]: 6400 ± 1500 M⁻¹ s⁻¹

- stoichiometry N [4]: 4
Molecule: cystathionine γ-lyase from Pseudomonas aeruginosa (PaCGL), wild type, N-terminal 6x-His tag (enzyme)

Molecule: PaCGL F114A variant, N-terminal 6x-His tag (enzyme)
- stoichiometry N [5]: 4

Molecule: Cc1ncc(COP(=O)(O)O)c(C=O)c1O [PLP]
- Kd [6]: 150 ± 10 nM

B1: cystathionine γ-lyase (PaCGL) (Pseudomonas aeruginosa PAO1) (protein)
chain: MSQHDQHPDAPAQAFATRVIHAGQAPDPSTGAIMPPIYANSTYIQESPGVHKGLDYGRSHNPTRWALERCVADLEGGTQAFAFASGLAAISSVLELLDAGSHIVSGNDLYGGTFRLFERVRRRSAGHRFSFVDPTDLQAFEAALTPETRMVWVETPSNPLLRLTDLRAIAQLCRARGIISVADNTFASPYIQRPLELGFDVVVHSTTKYLNGHSDVIGGIAIVGDNPDLRERLGFLQNSVGAISGPFDAFLTLRGVKTLALRMERHCSNALALAQWLERQPQVARVYYPGLASHPQHELAKRQMRGFGGMISLDLRCDLAGARRFLENVRIFSLAESLGGVESLIEHPAIMTHASIPAETRADLGIGDSLIRLSVGVEALEDLQADLAQALAKI
notes: PaCGL with N-terminal 6x-His tag
- Km [7]: 1700 ± 300 µM
- kcat [7]: 0.42 ± 0.04 s⁻¹
- kcat/Km [7]: 250 ± 70 M⁻¹ s⁻¹
- Km [8]: 430 ± 30 µM
- Km [9]: 300 ± 40 µM
- kcat [9]: 5.2 ± 0.2 s⁻¹
- kcat/Km [9]: 17000 ± 3000 M⁻¹ s⁻¹

From PMC11039470, “Catalytic specificity and crystal structure of cystathionine γ-lyase from Pseudomonas aeruginosa” (Scientific Reports, 2024)
